According to paper PMC5770569:

B1: Purified EGFL7 (SPRimager II experiments and blocking study) (natural protein)
chain: YRPGRRVCAVRAHGDPVSESFVQRVYQPFLTTCDGHRACSTYRTIYRTAYRRSPGLAPARPRYACCPGWKRTSGLPGACGAAICQPPCRNGGSCVQPGRCRCPAGWRGDTCQSDVDECSARRGGCPQRCVNTAGSYWCQCWEGHSLSADGTLCVPKGGPPRVAPNPTGVDSAMKEEVQRLQSRVDLLEEKLQLVLAPLHSLASQALEHGLPDPGSLLVHSFQQLGRIDSLSEQISFLEEQLGSCSCKKDS

How the values were obtained:
[1] = target: Purified recombinant EGFL7 (Sino Biological Inc.) (human) (UniProt Q9UHF1); assay: SPR
[2] = target: E7p72, re-synthesized with a Cys for the SPR chip; assay: SPR
[3] = target: E7p74, re-synthesized with a Cys for the SPR chip; assay: SPR
[4] = target: Fluorescein-labeled E7p72; assay: flow cytometry on cells

Row | Molecule | koff [1] [s⁻¹] | Kd [2] [nM] | Kd [3] [nM] | percent decrease in the uptake of FITC-E7p72 by EA.hy926 cells with 3x EGFL7 [4] [%]
1 | A647-CPMV-PEG viral nanoparticle (control) | 0.00124 | – | – | –
2 | B1 | – | 13.2 | 14.3 | 64.5
